± gives the standard error. For some of these results: Variants at the floor of the assay were thinned out.
B1: glmS ribozyme (parent)
chain: AUAAAAGCGCCAGAACUACAGAAAUGUAGUUGACGAGGAGGAGGUUUAUCGAAUUUUCGGCGGAUGCCUCCAAA

Key:
Details in all cases: with glucosamine-6-phosphate
[1] = variants of: B1; test: kcat; higher = faster cleavage; RNA array
How it was run: (§1)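 Tiles of sequenced MiSeq chips were imaged over ~14 h at 37 °C. On them, barcoded ribozyme variants had been transcribed in situ by E. coli RNA polymerase and were tracked via a hybridised Cy3 probe while glucosamine-6-phosphate (40 μM to 10 mM) in HEPES/KCl/Mg(OAc)2 buffer flowed in. Per-tile medians, normalised to baseline and to non-cleaving reference variants, were fit to one- or two-exponential decays for kobs, and weighted Michaelis–Menten fits gave kcat and KM.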

[2] = variants of: B1; test: KM; higher = weaker cofactor use; RNA array
How it was run: as §1

[3] = variants of: B1; test: self-cleavage kobs at 640 uM GlcN6P; higher = faster cleavage; RNA array
How it was run: as §1

[4] = variants of: B1; test: self-cleavage kobs at 2500 uM GlcN6P; higher = faster cleavage; RNA array
How it was run: as §1

[5] = variants of: B1; test: self-cleavage kobs at 10000 uM GlcN6P; higher = faster cleavage; RNA array
How it was run: as §1

[6] = variants of: B1; test: self-cleavage kobs at 40 uM GlcN6P; higher = faster cleavage; RNA array
How it was run: as §1

[7] = variants of: B1; test: self-cleavage kobs at 160 uM GlcN6P; higher = faster cleavage; RNA array
How it was run: as §1

Row | Variant | kcat [1] | KM [2] | self-cleavage kobs at 640 uM GlcN6P [3] | self-cleavage kobs at 2500 uM GlcN6P [4] | self-cleavage kobs at 10000 uM GlcN6P [5] | self-cleavage kobs at 40 uM GlcN6P [6] | self-cleavage kobs at 160 uM GlcN6P [7]
1 | C50U C70U | 4.57e-05 ± 5.9e-07 s⁻¹ | 154 ± 18 µM | 3.85e-05 ± 1.4e-05 s⁻¹ | 4.25e-05 ± 8.3e-06 s⁻¹ | 4.51e-05 ± 7.2e-06 s⁻¹ | – | –
2 | A39U G66C | 0.0109 ± 0.0036 s⁻¹ | 6420 ± 2800 µM | 0.00112 ± 0.00026 s⁻¹ | 0.00343 ± 0.00096 s⁻¹ | 0.0065 ± 0.001 s⁻¹ | 5.39e-05 ± 1.3e-05 s⁻¹ | 0.00046 ± 0.00012 s⁻¹
3 | G13U A15U | 0.000299 ± 2e-05 s⁻¹ | 5440 ± 760 µM | – | 9.42e-05 ± 1.4e-05 s⁻¹ | 0.000194 ± 1.9e-05 s⁻¹ | – | –
4 | C34U U69C | < 1e-05 s⁻¹ | – | – | – | – | – | –
5 | A42G A48U | 0.00077 ± 0.00015 s⁻¹ | 3220 ± 1100 µM | 0.000148 ± 4.3e-05 s⁻¹ | – | 0.000576 ± 0.00013 s⁻¹ | – | –
6 | C67U C68U | 0.000115 ± 7.3e-06 s⁻¹ | 293 ± 85 µM | 7.85e-05 ± 9.1e-06 s⁻¹ | 0.000124 ± 1.3e-05 s⁻¹ | 0.000107 ± 7.4e-06 s⁻¹ | – | 3.97e-05 ± 8.6e-06 s⁻¹
7 | C70G C71U | 0.000112 ± 1.4e-05 s⁻¹ | 401 ± 170 µM | 6.12e-05 ± 4.8e-06 s⁻¹ | 0.000102 ± 8.1e-06 s⁻¹ | 0.00011 ± 8.6e-06 s⁻¹ | – | 5.07e-05 ± 7.8e-06 s⁻¹
8 | A12C A14U | 0.000416 ± 3.2e-05 s⁻¹ | 2270 ± 350 µM | 9.07e-05 ± 1e-05 s⁻¹ | 0.000202 ± 2.4e-05 s⁻¹ | 0.000348 ± 2.9e-05 s⁻¹ | – | 3.61e-05 ± 9.3e-06 s⁻¹
9 | U54C U65C | 0.000618 ± 0.00021 s⁻¹ | – | 0.000249 ± 6.5e-05 s⁻¹ | 0.000743 ± 0.00016 s⁻¹ | 0.000465 ± 0.00013 s⁻¹ | – | –
10 | A33C U65A | 4.76e-05 ± 2.3e-06 s⁻¹ | 617 ± 240 µM | – | – | 4.47e-05 ± 1.6e-05 s⁻¹ | – | –
11 | C50G U57C | 4.02e-05 ± 1.6e-05 s⁻¹ | – | – | 5.18e-05 ± 1.7e-05 s⁻¹ | – | – | 4.88e-05 ± 2e-05 s⁻¹
12 | U69A C70G | 1.72e-05 ± 8e-06 s⁻¹ | – | – | – | – | – | –
13 | A15U U57G C58U C70A | 6.42e-05 ± 1.8e-05 s⁻¹ | – | 9.48e-05 ± 3.5e-05 s⁻¹ | 7.42e-05 ± 2e-05 s⁻¹ | – | – | 4.86e-05 ± 1.7e-05 s⁻¹
14 | C16A U54G | 0.00103 ± 0.0004 s⁻¹ | – | 0.00029 ± 4.8e-05 s⁻¹ | 0.000532 ± 9.9e-05 s⁻¹ | 0.00141 ± 0.00027 s⁻¹ | 4.66e-05 ± 1e-05 s⁻¹ | 9.7e-05 ± 1.9e-05 s⁻¹
15 | C58G C67G C70G | 5.76e-05 ± 2.6e-05 s⁻¹ | – | 6.3e-05 ± 2.3e-05 s⁻¹ | 8.09e-05 ± 3e-05 s⁻¹ | – | – | –
16 | A52G A53G | 0.00183 ± 0.00052 s⁻¹ | 3690 ± 1700 µM | 0.000264 ± 5.9e-05 s⁻¹ | 0.000638 ± 0.0001 s⁻¹ | 0.00145 ± 0.0002 s⁻¹ | – | 0.000131 ± 3e-05 s⁻¹
17 | G40U G41A | 0.000118 ± 3.1e-06 s⁻¹ | 1380 ± 130 µM | 3.9e-05 ± 1.1e-05 s⁻¹ | 7.51e-05 ± 9.8e-06 s⁻¹ | 0.000104 ± 9.9e-06 s⁻¹ | – | –
18 | U47C G66U | 2.83e-05 ± 1.3e-05 s⁻¹ | – | – | – | – | < 1e-05 s⁻¹ | –
19 | A12G A42U A53C | < 1e-05 s⁻¹ | – | – | – | – | < 1e-05 s⁻¹ | –
20 | C50G G59C | 4e-05 ± 1.5e-05 s⁻¹ | – | – | 5.58e-05 ± 2.3e-05 s⁻¹ | – | – | 6.56e-05 ± 3.2e-05 s⁻¹

Row | Variant | kcat [1] | KM [2] | self-cleavage kobs at 640 uM GlcN6P [3] | self-cleavage kobs at 2500 uM GlcN6P [4] | self-cleavage kobs at 10000 uM GlcN6P [5] | self-cleavage kobs at 40 uM GlcN6P [6] | self-cleavage kobs at 160 uM GlcN6P [7]
21 | U30C C70A | 5.42e-05 ± 6.4e-06 s⁻¹ | – | 7.04e-05 ± 2.5e-05 s⁻¹ | 5.57e-05 ± 1.8e-05 s⁻¹ | 4.43e-05 ± 1.5e-05 s⁻¹ | – | 5.93e-05 ± 2.3e-05 s⁻¹
22 | U31C U65C | 5e-05 ± 2.5e-06 s⁻¹ | 238 ± 120 µM | 3.88e-05 ± 1.4e-05 s⁻¹ | 4.75e-05 ± 9.5e-06 s⁻¹ | 4.78e-05 ± 6.9e-06 s⁻¹ | – | –
23 | G32U A64G | 0.000904 ± 0.0002 s⁻¹ | 3130 ± 1100 µM | 0.000178 ± 2.3e-05 s⁻¹ | 0.00034 ± 4.6e-05 s⁻¹ | 0.000774 ± 0.00011 s⁻¹ | – | 4.19e-05 ± 1.1e-05 s⁻¹
24 | C34U C68A | 1.2e-05 ± 1.8e-06 s⁻¹ | – | – | – | – | – | –
25 | G32C A52G | 1.94e-05 ± 5.2e-06 s⁻¹ | – | – | – | – | – | –
26 | G59C C67A | < 1e-05 s⁻¹ | – | – | – | < 1e-05 s⁻¹ | < 1e-05 s⁻¹ | –
27 | A33C A39U | 0.000401 ± 2.3e-05 s⁻¹ | 4000 ± 470 µM | 5.65e-05 ± 7.9e-06 s⁻¹ | 0.000146 ± 1.9e-05 s⁻¹ | 0.000289 ± 1.9e-05 s⁻¹ | – | –
28 | G38A A52U | < 1e-05 s⁻¹ | – | – | – | < 1e-05 s⁻¹ | – | –
29 | C61A C68U | 1.56e-05 ± 2e-06 s⁻¹ | – | – | – | – | – | –
30 | A33U A53U G66A | 7.62e-05 ± 1.7e-06 s⁻¹ | – | – | – | – | – | –
31 | A15G G37U | 1.02e-05 ± 7.1e-07 s⁻¹ | 623 ± 300 µM | – | – | – | < 1e-05 s⁻¹ | –
32 | G32A A42G A64G | 0.00178 ± 0.00063 s⁻¹ | – | 0.000716 ± 0.00024 s⁻¹ | – | 0.0016 ± 0.00039 s⁻¹ | 3.12e-05 ± 1.5e-05 s⁻¹ | –
33 | C16U U47A | 0.0299 ± 0.0051 s⁻¹ | 3060 ± 660 µM | 0.00515 ± 0.00087 s⁻¹ | 0.0118 ± 0.003 s⁻¹ | 0.0259 ± 0.0068 s⁻¹ | 0.0004 ± 7.1e-05 s⁻¹ | –
34 | C10G A12U | 8.15e-05 ± 3.2e-05 s⁻¹ | – | – | – | – | – | –
35 | A6C U69C | 3.1e-05 ± 9.9e-06 s⁻¹ | – | – | 4.93e-05 ± 2e-05 s⁻¹ | – | < 1e-05 s⁻¹ | –
36 | A15U U31G C71U | 0.00048 ± 0.00012 s⁻¹ | – | 0.000238 ± 3.6e-05 s⁻¹ | 0.000267 ± 6.8e-05 s⁻¹ | 0.000517 ± 9.1e-05 s⁻¹ | 6.97e-05 ± 3.1e-05 s⁻¹ | 6.51e-05 ± 1.8e-05 s⁻¹
37 | G13C A14U C68U | 1.07e-05 ± 1.2e-06 s⁻¹ | – | – | – | – | – | –
38 | G13A U47C | 8.51e-05 ± 5.3e-06 s⁻¹ | 7300 ± 1000 µM | – | – | 4.92e-05 ± 1.1e-05 s⁻¹ | – | –
39 | U46A U54G | 0.00254 ± 0.00049 s⁻¹ | 1180 ± 400 µM | 0.00113 ± 0.00014 s⁻¹ | 0.00191 ± 0.00028 s⁻¹ | 0.00205 ± 0.00028 s⁻¹ | 8.77e-05 ± 2e-05 s⁻¹ | 0.000213 ± 5.2e-05 s⁻¹
